According to publication PMC11650997 (Journal of Virology, 2024):

B1: pT1616 (human monoclonal antibody, IgG1) (antibody, V domains shown)
VH: QVQLVQSGAEVKKPGSSVKVSCKASGGTFSSYTISWVRQAPGQGLECMGRIIPILGIANYAQKFQGRVTITADKSTSIAYMEVSSLRSEDTAVYYCATEVGYSGYGSAEYFNHWGQGTPVTVSS
VL: QSVLTQPPSVSGAPGQRVTISCTGSNSNIGAGYDVHWYQQLPGTAPKLLIYANNNRPSGVPDRFSGSRSGTSASLVITGLQADDEADYYCQSYDSSLTGSLFGGGTKLTVL
notes: also called bnAb pT1616; nAb pT1616; source: HEK293ExPi, transfected, purified from the supernatant (Protein G, SEC)
B2: pT1616 IgG1 (antibody, V domains shown)
VH: B1 VH
VL: B1 VL
notes: also called bnAb pT1616; nAb pT1616; source: HEK293ExPi, transfected, purified from supernatant (Protein G, SEC)

Columns and labels:
[1] = biological target: T1, SARS-CoV-2 S protein ectodomain trimer, prefusion conformation, insect cell-expressed (SARS-CoV-2 Wuhan-Hu-1 (MN908947), UniProt P0DTC2, stabilised); test: SPR; […] (100 nM, 30 s) […]; 1:1 Langmuir fit; settings: both partners purified
T1 construct: also called S trimer; trimeric S protein

[2] = biological target: T2, SARS-CoV-2 S protein ectodomain trimer in prefusion conformation (insect cell-expressed) (SARS-CoV-2 Wuhan-Hu-1 (MN908947), UniProt P0DTC2, stabilised); test: SPR; […] (100 nM) […]; 1:1 Langmuir fit; settings: both partners purified
T2 construct: also called trimeric SARS-CoV-2 S protein; S trimer

Row | Binder | Kd [1] | koff [1] | kon [1] | fold lower KD for the S trimer than for the monomeric RBD [2]
1 | B1 | 0.083 nM | 6.9e-05 s⁻¹ | 840000 M⁻¹ s⁻¹ | 
2 | B2 |  |  |  | > 3 fold
